The source of these data is paper PMC5413018, “Neuropeptide S (NPS) variants modify the signaling and risk effects of NPS Receptor 1 (NPSR1) variants in asthma” (PLoS ONE, 2017).

One assay deals with T1, NPSR1-Ile(107) (Homo sapiens, UniProt Q6W5P4, N107I).
T1 sequence (Q6W5P4 1-371 N107I): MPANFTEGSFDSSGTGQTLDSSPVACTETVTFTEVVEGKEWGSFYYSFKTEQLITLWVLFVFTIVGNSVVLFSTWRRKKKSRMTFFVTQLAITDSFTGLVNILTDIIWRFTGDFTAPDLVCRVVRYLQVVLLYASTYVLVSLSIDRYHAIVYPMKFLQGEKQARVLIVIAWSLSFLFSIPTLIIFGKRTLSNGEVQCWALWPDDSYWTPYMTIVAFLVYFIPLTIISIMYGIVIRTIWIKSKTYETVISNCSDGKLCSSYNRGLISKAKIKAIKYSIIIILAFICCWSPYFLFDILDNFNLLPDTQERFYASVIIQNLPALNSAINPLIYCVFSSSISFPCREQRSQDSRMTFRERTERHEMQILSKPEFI
Description: Real-time RT-PCR of NPSR1 downstream target genes in HEK293 cells, NPSR1-Ile(107). In kind it is cell-based. More on the design: expressed in transfected cells; host or cells: HEK293. The source says:
The activation of CRE results in transcriptional changes of downstream target genes. To examine whether the observed differences in the promoter activity also affected gene expression, we measured the effects of NPS variants on known NPSR1 downstream target genes. NR4A1 (nuclear receptor subfamily 4, group A, member 1), FOS (FBJ murine osteosarcoma viral oncogene homolog), and chemokine ligands CXCL2 and CCL20 were selected as they were among the most influenced genes after NPS stimulation and their expression also differed between transcriptome comparisons of HEK293 cells expressing either NPSR1-Ile(107) or NPSR1-Asn(107). In the present study, HEK293 cells transiently transfected with either NPSR1-Ile(107) or NPSR1-Asn(107) coding variants were stimulated with 100 nM of either NPS-Val(6) or NPS-Leu(6) for 1, 3, 6, and 24 h, and changes in gene expression were analyzed with RT-PCR.
Fig 2 Real time RT-PCR analysis of NPSR1 downstream target genes. […] GAPDH was used as the endogenous reference, and data are expressed as mean of triplicate samples. […] In all experiments, results were calculated with the comparative Ct method.
Human embryonic kidney cells (HEK293) were cultured in MEM+GlutaMAX-1 medium (Gibco/Invitrogen) supplemented with 10% fetal calf serum (FCS) (Biosera), 1% sodium pyruvate, 1% non-essential amino acids and 1% penicillin/streptomycin (Gibco/Invitrogen). […] The HEK293 cell line was chosen for ligand-receptor studies because it is a well-established model for addressing numerous questions in basic biology and is easy to transfect and amenable of stringent quantitative assessment. […]
The mRNA expression was measured with qRT-PCR using either SYBR Green (for NR4A1, FOS, IER3, and EGR1, the primer sequences are given in S5 Table) or TaqMAN assay (Hs00601975 for CXCL2 Hs00601975, Hs01011368 for CCL20, Hs01036497 for NPSR1 and Pre-Developed TaqMAN Assay Reagents, Part No. 4310884 for GAPDH; Applied Biosystems). […]

Another assay deals with NPSR1. As to conditions: cited from earlier work. An excerpt: To compare the bioactivities of the two NPS variants, we measured the dose-responses of NPSR1-Ile(107) and NPSR1-Asn(107) coding variants to either wildtype NPS-Val(6) or alternative NPS-Leu(6) in a luciferase assay dependent on the activation of a cAMP-response element (CRE). This assay was used since elevation of the intracellular cAMP levels activates cAMP response element binding protein (CREB) via […]. Activated CREB binds to CRE and induces the expression of downstream target ...

Setting [1] is: HEK293 with NPSR1-Ile(107) or NPSR1-Asn(107), 100 nM NPS.

In the case of “Neuropeptide S (SFRNGVGTGMKKTSFQRAKS; Neuropeptide S; UniProt P0C0P6 70-89, looked up) [NPS, Neuropeptide S, variant not specified at the place]”, the “downstream signaling in cells expressing NPSR1-Ile(107) vs NPSR1-Asn(107) (in words)” value with NPSR1-Ile(107) (HEK293, 100 nM, compared with cells expressing NPSR1-Asn(107)) is listed as “stronger downstream signaling”. In the assay with NPSR1-Ile(107) (setting [1]), the “time of mRNA induction of NR4A1, FOS and CXCL2” value is listed as 1 h; the “time of up-regulation of CCL20 mRNA” value turned out to be 3 h. For the same substance, in the assay with NPSR1, the “cAMP production on NPSR1 activation (in words)” value is recorded as “increasing cAMP production”.
